Experiment: label from the status in PepcDB records
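Note: failed if final PepcDB status was selected cloned or expressed and not failed if soluble or beyond.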

| Sequence | protein production |
| --- | --- |
| MSLKDFAGRTAFVTGGANGVGIGLVRQLLNQGCKVAIADIRQDSIDKALATLEAEGSGPEVMGVQLDVASREGFKMAADEVEARFGPVSILCNNAGVNLFQPIEESSYDDWDWLLGVNLHGVVNGVTTFVPRMVERVKAGEQKGGHVVNTASMAAFLAAGSPGIYNTTKFAVRGLSESLHYSLLKYEIGVSVLCPGLVKSYIYASDDIRPDALKGEVKPVDKTAVERLAGVHEFGMEPDVIGARVIEAMKANRLHIFSHPDHKEELREVFDEIIAEYQDYPKDPGYDQRVAFEKFRADSFAEARRQSRAADEGHHHHHH | not failed |
| SGIIKMAIRFDRRAYPPQITPKMCLLEWCRREKLPQPVYETVQRTIDRMFCSVVTVAEQKYQSTLWDKSKKLAEQTAAIVCLRSQGLPEGRLGEESPSLNKRKREAPDQDPGGPR | not failed |
| MSDSGRADALLAELPRDGRGRLKVFLGAAPGVGKTYAMLQAAHSQLRQGVKVLAGVVETHGRAETEALLSGLPQQPLVRSEYRGVLLEEMDLDGLLKAKPKLVLVDELAHSNAPGSRHAKRWQDIQELLAAGIDVFTTVNVQHLESLNDQVRGITGVQVRETLPDWVLQEAYELLLVDLPPRELLERLRDGKVYVPEQARAAIDAFFTQTNLTALRELAMQTAAAQVDNDLAQGYRQLGQAAPAVRGRLLVGIDGDAQAERLVRHASRVAQRRHLPWSLVHVDNGRLRDEQARLRLQAAQQLAERLGGEVVLLRAGEVAKTLIQHAAERRASLLLVGQSRRRWRRRWFGGGLAARLLRNADGLEINVLDSEPQPHQPGLRVKHSLIWFDYVLAVLATLLASALAWGVASVLPLPNISLVFLAAVLLVAVRSSLGPALACAALSFLSYDFLFIPPNFSLAIQREEDVLTLLFFLLMAALTGNLAARQRRQLQALRDTQEETGELLDLSRKLTAATDRQAVISAAAQHLNGRDELRVCLINRDGQGGWKVETGGSPQFSEAERAAADWAWQHDQPAGLGTGTLPFGRWWWWPLSVDDGPLGLLGVCPREGEEFSGQRRRLLTALSQPLAQALARARLAEDLEAARLHGETEQLRSALLASVSHDLRTPLTSMRGSIDSLLALGEAIPLEDRRELLEGTRDEAERLDRYIQNLLDMTRLGHGALKLARDWVAPGDIVGSALNRLRAVLAPLQVATELPADLPLLYVHAALIEQALVNVLENAARFSPLQGHLQLKVSASEQELSFAVSDEGPGIPEDERAKIFDMFYTAARGDRGGQGTGLGLAICQGMVGAHGGHISVAEGIGGKGTCITLHLPLQTQPELESDL | failed |
| MSTIFDIRNLRLPQLSRASVVIGSLVVVLALAAGIVGVRLYQKLTNNTVVAYFTQANALYVGDKVQIMGLPVGSIDKIEPAGDKMKVTFHYQNKYKVPANASAVILNPTLVASRNIQLEPPYRGGPVLADNAVIPVERTQVPTEWDELRDSVSHIIDELGPTPEQPKGPFGEVIEAFADGLAGKGKQINTTLNSLSQALNALNEGRGDFFAVVRSLALFVNALHQDDQQFVALNKNLAEFTDRLTHSDADLSNAIQQFDSLLAVARPFFAKNREVLTHDVNNLATVTTTLLQPDPLDGLETVLHIFPTLAANINQLYHPTHGGVVSLSAFTNFANPMEFICSSIQAGSRLGYQESAELCAQYLAPVLDAIKFNYFPFGLNVASTASTLPKEIAYSEPRLQPPNGYKDTTVPGIWVPDTPLSHRNTQPGWVVAPGMQGVQVGPITQGLLTPESLAELMGGPDIAPPSSGLQTPPGPPNAYDEYPVLPPIGLQAPQVPIPPPPPGPDVIPGPVPPTPAPVGAPLPAEAGGGQ | failed |
| MDDIRCAIIIDPDLPPGVIANTAAVLAMSLGKRHPELVGQDLPDARGQPRQGITTVPIPVLKGGADQLRALRAAASETGLTLVELTSATRFTRSYQEYAAALAATPEEMVEYQGLALCGPGKRVRQLTGSLGLLRLEHHHHHH | failed |
| MILLKSLYKGFFAAMKEENFEARCYNREKGGCVLIKTMQYKKTMATVVALIVALLLFGLIYDLLGVQKNELAAQKSAQPKVKTARVVANGDILIHDILYMSARKADDTYDFTPYFEYVKDWISGADLAIGDYEGTISPDYPLAGYPLFNAPEEIAGALKNTGYDVVDLAHNHILDSQLDGALNTKKVFHQLGIDSIGIYDKDRSKESFLIKNVNGIKIAILGYSYGYNGMEATLSQEDYEKHMSDLDEAKIKKELQLAEKKADVTIVMPQMGTEYALEPTAEQKELYHKMIDWGADVVLGGHPHVIEPSETVIKGRQKKFIIYSMGNFISNQRLETVDDIWTERGLLMDLTFEKKDNKTKIKTVEAHPTMVLAKGKGIVGKEGFELYNYRTMVLEDFIKGGKYHDKIDEETKAKVALAYQEINDLVNLKW | failed |
| TRGSAQMQPYFEELLLSLGPILKNITNSMVISGHTDSTPYAGSLFTNWELSSERALLARRVLERGGVKRDQVIQVTGMADQVPYITSDTAAAANRRIEALILTS | failed |
| MSEDLMDLSPEEGIERFLRHREPSVRESTMRNAKTRLRFFNEWCEERDIENLNNLTGRDLADFVAWRRGDIAALTLQKQLSTIREALRYWADIEGVDDGLAEKVHAPELPDGAESREVHLSADRAHQILDFLHDYRYASRDHVVFLILWKTAMRRSALRSLDVDDLRPDDYALVLEHRIDEGTKLKNGEDGERWVYLGPSDYQVVDDYLDNPDRYERTDDYGRKPLITSQHGRPAGDTIYKWVNKLTQPCVLNGCPHDADPSDPSTCEALGSRAAHSKCPSSRSPHGLRRGSITYHLNSDVSPEIVSERCDVSLEVLYEHYDVRTNQEKMAVRKKQLERI | failed |
| MTTPNFELYGYFRSSCSGRLRIAFHLKSIPYTRHPVNLLKGEQHSDTYKSLNPTNTVPLLVVSNINNTVSPSSASFSIGQSLAALEYLEEALPTNARPLLPPISNPVARAHVRTICNIIACDVQPVTNLKIQKKVKALDGDPTVWSRDLATQGFGAVEKLLELSAGRFCVGDEITLADVCLVPAVWAAERVGMDLARFPITKRVFEEMLKEEAVQKAHWQKQEDTPEDLRA | not failed |
| MLHDTPLITTIVAGLCLAFLLGMIASRLRISPLVGYLLAGVIVGPNTGGFRIDSGIINQLAEIGVILLMFGVGLHFSLKDLLSVKAIAIPAAIAQMAFSTFLGSCLGLIMGWGLSSSVVFGLALSTASTVILLRALQERHLIETEKGRIAVGWLIIEDLAMVLILVLIPSLANILGNTKKEAIDPLIQWLDLSIWGIFGLTILKVILFIILMLVIGRRVIPWLLKVSAHSGSRELFRLSVFATALGVAFGAAHLFGVSLSLGAFFAGMVMSESELSHRAAEESLPLRDAFSVLFFVSVGMLFDPGKILSHFFPLLATLFIIIIGKSAGAFFILKAFRYSNATACTISASLAQIGEFSFILAGLSLSLGLLNNDAHDFILGGAILSILVNPLIFIAFDKIKKHLENLPKNSQDTQKIIDIDPKDPDQEFLPMTSKTNHIVIIGYSRIGKCVALSLINRGDPVVIVEESKRLTDKAIADGFEVICGNIIKQDVMNAANMSNAYKVVITMCNTIEVGECIVNIRDMNKDIQIITHTLSDVDTAYLIDLGADIVVTDEEEIANGVIEHITGQRFIKNIAQS | failed |
| MRNPHSNGNLRKLEADGGGEATEENGFVNGVILGLDGGATSTVCVCVPFFSFGERFPDPLPILGRAVAGCTNRNSVGETAARDSLEQVISEALVQSGFDKSDVRGVCLGVSGVNHPSDQEKIENWIRDMFPSHVKVYVQNDAIVALASGTMGKLHGCVLIAGTGCIAYGFDEDGKEARASGGGPILGDWGSGYGIAAQALTAVIRAHDGRGPQTMLTSTILKALGLSSPDELIGWTYADPSWARIAALVPQVVSCAEAGDEISDKILVDAAEDLALSVKAVVQRLGLCGKDGTASFPVVMVGGVLNANQKWDIGKEVSKRINRYFPGAQTIIPKVEPAVGAALLAMNFLSS | failed |
| WQWDLATNKFIYSDNQHRLLGVERDSFESSNDAFINFVHPEDRHVIKNGERMVLDEQQSSVAFFRVIRKDGQMRYFKSIGKLLTDSSGNKILIGINNDITEEH | failed |
| MKKGAFITQIVIYGLILLASSLIANLVNKIWPAFPMPTPLIGMILLYLLLTFKVVKLEQVAGVSNFFVQFISLIFIPSGIALVTKLDVLKAEGVQIVIVIIVSTLMLLLFTAGIAWVLIQVKEWFIARRTNSNVELEED | failed |
| VWAHYEEQPVEEVMPVLEEKERSASYKPVFVTEITDDLHFYVQDVETGTQLEKLMENMRNDIASHPPVEGSYAPRRGEFCIAKFVDGEWYRARVEKVESPAKIHVFYIDYGNREVLPSTRLGTLSPAFSTRVLPAQATEYAFAFIQVPQDDDARTDAVDSVVRDIQNTQCLLNVEHLSAGCPHVTLQFADSKGDVGLGLVKEGLVMVEVRKEKQFQKVITEYLNAQESAKSARLNLWRYGDFRADDADEFGYSR | failed |
| MFLVISVVGSSNIDIVLKVDHFTKPGETQKAIEMNVFPGGKGANQAVTVAKIGEKGCRFVTCIGNDDYSDLLIENYEKLGITGYIRVSLPTGRAFIEVDKTGQNRIIIFPGANAELKKELIDWNTLSESDILLLQNEIPFETTLECAKRFNGIVIFDPAPAQGINEEIFQYLDYLTPNEKEIEALSKDFFGEFLTVEKAAEKFLELGVKNVIVKLGDKGVLLVNKNEKKHFPTFKVKAVDTTAAGDVFNGAFAVALSEGKNPEEAVIFGTAAAAISVTRLGAQSSIPAREEVEAFLKNL | not failed |
| MVKTFRQREEDIVRCNRCGFCEEVCPTYKATGEEFSLARGRNRLMRQSMEGKLDLTKEPEINQHIYSCLLCGACVAACPSSVITDTLIKTARAEITRAKGQPFPIRMALRGVLANQRRLTLGAKVLRFYQRSGARWLARHIGFLNLMGSLGKAEGLLPAIPEKTLRVQLPQLLKKPMKPRHKVAYFAGCMINNFFTAVGEATLRVYQENDIEVVVPTSNCCGIPHEAYGDIEMQIKLAKENLDAFSRYEVEAIVTDCASCAHGLHSYAELLQDDPHYGPLAAQLAAKVKDASQYLVEIGFKKEMGPVNATVTYHDPCHAARGLKVKEQPREILKSIPGVKFVEMNESDWCCGGAGSYNVTHYELSRKILARKMDNFKKTGAEYLATSCPACLMQLAHGLDVYRLSGKAIHVMQILDQAYQNRAVRSKAKAG | failed |
| MLVRNICKFTQVMGRFRVVVNPRDYCHLAPLKRSRYHQRSEFGCRPLCSNAAGYEVSWAAPPASGSSGGMFWAFSAAFTLNLFGGADEKEETPEEKLIKTIKRSILCIQREQYDKAEQMLHLALRMAQDIQSKDGITYVFDLMANLAMEREQFKKAEKIFTDVMKRLFAEGHTEESPKILHISSKIAHMSQLQGDLEKSFQGFTWTLQQLAKLLEKMPDDKDILELYGLTKNWFGQLLMKQGKYLEAKNLFKEAFDTLINVYGAVNDASVTILNNISVAYVNLEKYAEARETLLEAMELTKELKDATQEGILQANLGLVYLREGLMSQAENACRLAWKLGKQHQNPDAVEQAEYCLNEIKTTLNGEKRQ | failed |
| MGHHHHHHSHMRCQESMSAVLTAEQALKLVGEMFVYHMPFNRALGLELERYEKAFAQLAFNNQPMMVGNWAQSILHGGVIASALDVAAGLVCVGSTLTRHETISEDELRQRLSRMGTIDLRVDYLRPGRGNRFTATSSLLRAGNKVAVARVELHNEDQLYIASATATYMVG | failed |
| MKVERRTIEYIPNEERHGKAKDLFPVWFGANMHITTLVTGTIPVAMGLNLFWSVAAIICGTLIGAIFMASHSAQGPQLGIPQMIQSRAQFGVIGAILPLFLVMFIYLGFFASSTILAAGTLSSFVPIPGSWSIIGLSAVCFLLTIFGHDLIHKMQKILSWTSFAVFFAATILIFQLPIPAGSWIPGAIDLPIFLVAVSAVATWQLAYAPYVADYSRYLPVKTPASKTFWYSYAGTSVSSIWMMLLGALLTTSLPDFTANSGSQIVQLFGPFSFIMLIIVLFGQMAINVFNLYGAFMSTTTTLEPFLKLKVTPKVRIIMILGVTLVGTVLSLLGQSNFMELFLNFIFFISYFLIPWTAINLVDYYFVRHGKYQVKAMFDVNGPYGKVNWITTIAFVLSILLEIPFINTSFYIGPLAKMFGGGDIAWIIGLAVPSVLYYVLMKPRLKKRAGYQEKLSSL | failed |
